The supplement of paper PMC7125110
± gives the standard error. For some of these results: Fewer inactive variants are shown than the library holds.

B1: glmS ribozyme (parent)
chain: AUAAAAGCGCCAGAACUACAGAAAUGUAGUUGACGAGGAGGAGGUUUAUCGAAUUUUCGGCGGAUGCCUCCAAA

Assays:
Conditions in all cases: with glucosamine-6-phosphate
[1] = variants of: B1; experiment: kcat; higher = faster cleavage; RNA array
Outline: (§1)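 kobs was derived by fitting per-tile medians to one- or two-exponential decays after normalising signals to baseline and to non-cleaving reference variants. Those signals came from barcoded ribozyme variants transcribed in situ by E. coli RNA polymerase on sequenced MiSeq chips, followed through a hybridised Cy3 probe at 37 °C and imaged over ~14 h. Glucosamine-6-phosphate (40 μM to 10 mM) in HEPES/KCl/Mg(OAc)2 buffer was flowed in. Weighted Michaelis–Menten fits across concentrations then gave kcat and KM.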

[2] = variants of: B1; experiment: KM; higher = weaker cofactor use; RNA array
Outline: as §1

[3] = variants of: B1; experiment: self-cleavage kobs at 40 uM GlcN6P; higher = faster cleavage; RNA array
Outline: as §1

[4] = variants of: B1; experiment: self-cleavage kobs at 160 uM GlcN6P; higher = faster cleavage; RNA array
Outline: as §1

[5] = variants of: B1; experiment: self-cleavage kobs at 640 uM GlcN6P; higher = faster cleavage; RNA array
Outline: as §1

[6] = variants of: B1; experiment: self-cleavage kobs at 2500 uM GlcN6P; higher = faster cleavage; RNA array
Outline: as §1

[7] = variants of: B1; experiment: self-cleavage kobs at 10000 uM GlcN6P; higher = faster cleavage; RNA array
Outline: as §1

Variant	kcat [1] [s⁻¹]	KM [2] [µM]	self-cleavage kobs at 40 uM GlcN6P [3] [s⁻¹]	self-cleavage kobs at 160 uM GlcN6P [4] [s⁻¹]	self-cleavage kobs at 640 uM GlcN6P [5] [s⁻¹]	self-cleavage kobs at 2500 uM GlcN6P [6] [s⁻¹]	self-cleavage kobs at 10000 uM GlcN6P [7] [s⁻¹]
AUAAAAGCGCCAGAACUACAGAAAUGUAGUUGACGAGGAGGAGGUAUAUCGAAUGUUCGGCGGAUGCCUCCAAA [U46A U55G]	0.0019 ± 0.00044	1350 ± 440	5.8e-05 ± 7.5e-06	0.000169 ± 2.3e-05	0.000893 ± 0.00011	0.001 ± 0.00022	0.00169 ± 0.00022
AUAAAAGCGCCAGAAUUACAGAAAUGUAGUUGACGAGGAGGAGGUUUAUCGAAUCUUCGGCGGAUGCCUUCAAA [C16U U55C C70U]	0.000581 ± 5.6e-05	2450 ± 440			0.000125 ± 2.7e-05	0.000261 ± 7.6e-05	0.000482 ± 9.6e-05
AUAAAAGCGCCAGAACUACAGAAAUGUAGUUGACGAGGAGGAAGUUUAUCGAAUAUUCGGCGGAUGCCUCCAAA [G43A U55A]	0.00026 ± 7.6e-05						8.23e-05 ± 1.2e-05
AUAAAAGCGCCAGCACUACAGAAAUGUAAUUGACGAGGAGGAGGUUUAUCGAUUUUUCAGCGGAUGCUUCCAAA [A14C G29A A53U G59A C68U]	< 1e-05						
AUAAAAGCGCCAGAACUACAGAAAUGUAGUUGACGAGGAGGAGGUUUGUCGAAUUUUCGGCGGAAGCCUCCAAA [A48G U65A]	< 1e-05			< 1e-05			
AUAAAAGCGCCAGAACUACAGAAAUGUAGUUGACGAGGAGGAGGUUUAUCGAAUUUUUGGCGGAUGCCCCCAAA [C58U U69C]	2.82e-05 ± 7e-06					5.56e-05 ± 1.6e-05	2.52e-05 ± 5.6e-06
AUAAAAGCGCUAGAACUACAGAAAUGUAGUUGACGAGGAGGAGGUUUAUCGAAUAGUCGGCGGAUGCCUCCAAA [C11U U55A U56G]	0.000956 ± 0.00038		4.23e-05 ± 1.9e-05		0.000289 ± 4.5e-05	0.000451 ± 0.00012	0.00113 ± 0.00024
AUAAAAGCGCCAGAACUACAGAAAUGUAGUUGACGAGGAGGAGGUUUAUCGAAUUUUCAGCGGAUGACUCCAAA [G59A C67A]	1.53e-05 ± 3.7e-06						
AUAAAAGCGCCAGAACUACAGAAAUGUAGUUGACGAGGAGGAGGUUUAUCGAAUUUUCGGCGGGGUCCUGCAAA [A64G U65G G66U C70G]	2.23e-05 ± 6.3e-06						
AUAAAAGCGCCAGAGCUACAGAAAUGUACUUGACGAGGAGGAGGUUUAUCGAAUUUUCGGCGGAUGCCUCCAAA [A15G G29C]	0.00276 ± 0.00064	3540 ± 1400	3.64e-05 ± 1.1e-05	0.000187 ± 5.3e-05	0.000327 ± 7.2e-05	0.00156 ± 0.00032	0.002 ± 0.00023
AUAAAAGCGCCAGAACUACAGAAAUGUAGUUGACGAGGAGGAGGUUUAUCGCAUUUUCGGCGGAUGCCUUCAAA [A52C C70U]	5.27e-05 ± 9.4e-06					5.72e-05 ± 1e-05	4.63e-05 ± 7.5e-06
